# Test results reported in publication PMC6768651, “A ubiquitin-like domain controls protein kinase D dimerization and activation by trans-autophosphorylation” (The Journal of Biological Chemistry, 2019).
# Residue numbers refer to the chain shown, from its start. Names and notes keep the numbering of the source.
# B1: DKF-1 ULD (DKF-1^1–94) [C. elegans] / Atto488-labeled DKF-1 ULD^R42C [modified: Atto488 (maleimide-conjugated) on cysteine 42; Atto488 (maleimide-conjugated) on cysteine 42] [C. elegans] (parent complex)
# chain 1: MDGSQGSTDYGDHVVLRYGGTREMVPLIRHEQMLDMLMERARQIVQGFGNLDTRNMYLFRHEYNSPTLLYPITSASQITSGSILEIILVDRTEA
# chain 2: B1 chain 1 with R42C
# Variants of: B1
# Experiment: fluorescence anisotropy; highest titration point: ULD F59E about 27 µM; parent value is the highest ULD WT point, about 20 µM; parent: 0.024; read off a plot
row,response,Variant
1,~0.003,chain 1 F59E
